Experimental data taken from patent publication US11098081B2, “Epitope tag and method for detection and/or purification of tagged polypeptides” (ChromoTek GmbH, priority 2015, dated 2021).
“And” between values parts separate entries of the source, which are not always exact repeats. Identical values can stand only once.

T1: full-length β-catenin or domains (N-terminus aa 1-119, armadillo domain, C-terminus) (Homo sapiens, UniProt P35222)
T1 construct: full-length β-catenin or the following domains of β-catenin: N-terminus aa 1-119; made in house; host or cells: E. coli BL21(DE3) CodonPlus-RIL
T1 sequence (P35222 1-119): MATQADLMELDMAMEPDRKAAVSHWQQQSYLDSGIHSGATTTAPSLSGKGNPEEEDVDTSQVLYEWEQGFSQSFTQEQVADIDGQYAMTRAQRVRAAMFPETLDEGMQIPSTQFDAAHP

B1: BC2-Nb: nanobody; variable region of a heavy chain antibody of Camelidae, 122 aa, SEQ ID NO: 6, binds the BC2 epitope tag (protein)
VHH: QVQLVESGGGLVQPGGSLTLSCTASGFTLDHYDIGWFRQAPGKEREGVSCINNSDDDTYYADSVKGRFTIFMDNAKDTVYLQMNSLKPEDTAIYYCAEARGCKRGRYEYDFWGQGTQVTVSS
modifications: BC2-Nb
B2: BC2-NbATTO647: BC2-Nb coupled to the organic dye ATTO647 (conjugate)
VHH: QVQLVESGGGLVQPGGSLTLSCTASGFTLDHYDIGWFRQAPGKEREGVSCINNSDDDTYYADSVKGRFTIFMDNAKDTVYLQMNSLKPEDTAIYYCAEARGCKRGRYEYDFWGQGTQVTVSS
modifications: left off: small tags and cut ends
notes: BC2-Nb coupled to the organic dye ATTO647
B3: BC2-NbAF488: BC2-Nb chemically coupled to the organic dye AlexaFluor488 (conjugate)
VHH: QVQLVESGGGLVQPGGSLTLSCTASGFTLDHYDIGWFRQAPGKEREGVSCINNSDDDTYYADSVKGRFTIFMDNAKDTVYLQMNSLKPEDTAIYYCAEARGCKRGRYEYDFWGQGTQVTVSS
modifications: left off: small tags and cut ends
notes: BC2-Nb chemically coupled to the organic dye AlexaFluor488

How the values were obtained:
[1] = target: T1, full-length β-catenin or domains (N-terminus aa 1-119, armadillo domain, C-terminus); experiment: Domain mapping of β-catenin binders (microsphere-based sandwich immunoassay); format: binding
Description: Microsphere-immobilized Nbs were incubated with GST-fusion constructs comprising full-length β-catenin or indicated domains. Captured β-catenin constructs were detected with domain-specific antibodies. For direct comparison, fluorescence intensities obtained with domain-specific antibodies were normalized to signals obtained with an anti-GST-antibody.
BC2-Nb was covalently immobilized on microspheres using a modified manufacturer's protocol described in Poetz et al. ((2009) Microsphere-based co-immunoprecipitation in multiplex. Analytical biochemistry 395, 244-248). Immobilized BC2-Nb was incubated with purified proteins representing full-length β-catenin or the following domains of β-catenin: N-terminus aa 1-119, armadillo domain aa 120-683 and C-terminus aa 683-781. Purified Glutathion-S-transferase (GST) was used as a negative control. Concentrations range from 0.25 μg/ml to 2 μg/ml. Bound proteins were detected with domain-specific antibodies including ABC antibody clone 8E7 (Merck Millipore) specific for the N-terminus, anti-β-catenin 9G10 (Merck Millipore) targeting the armadillo domain and anti-β-catenin clone 14 (Becton Dickinson) specifically recognizing the C-terminus. To detect unspecific binding of the BC2-Nb to GST an antibody against GST (6G9, ChromoTek) was used. […] The microspheres were measured in a FlexMap 3D instrument (Luminex). […]

[2] = target: GFP with a C-terminal BC2-tag (GFPBC2T) (Aequorea victoria, UniProt P42212, F64L/H231L/S65T)
Description: For surface plasmon resonance spectroscopy (SPR)-based affinity measurements. […] The obtained data sets were evaluated using the 1:1 Langmuir binding model with mass transfer. As a control.
The affinity measurements of the BC2 nanobody and the indicated mutants thereof to GFPBC2T were performed using surface plasmon resonance spectroscopy with a Biacore 3000 instrument (GE-Healthcare). GFPBC2T was covalently coupled on dextran fibers of a CM5 sensorchip (GE Healthcare) to a response level of 500 RU. One flow cells was activated and blocked in the absence of protein to determine background, another was loaded with untagged GFP as a control against unspecific binding. […] Each measurement was done in duplicates. As running dilution buffer 10 mM HEPES pH 7.4, 150 mM NaCl, 0.5% surfactant Tween was used. Measurements were performed at 25° C. For the association of BC2-Nb a How rate of 50 μl/min for 15 s and for the dissociation a flow rate of 50 μl/min for 600 s was applied. The regeneration was induced by injection of 23 μl regeneration solution at a flow rate of 30 μl/min. As regeneration solution 10 mM glycine-HCl pH 2.0 was used. The data was evaluated using the software Bia evaluation 4.1 and the 1:1 Langmuir binding model with mass transfer.

[3] = tested on: peptides of the β-catenin N-terminus (aa 1-127); experiment: Epitope mapping (pepscan) with biotinylated BC2-Nb on peptide-coated microspheres; format: binding, human
Description: (SEQ ID NO: 4), […] […] (SEQ ID NO: 65).
As negative controls, microspheres comprising Ovalbumin and the Myc-peptide ([…]) covalently coupled to OVA-microspheres were used.

[4] = tested on: HeLa cells expressing mCherry-VIMBC2T or GFP-PCNABC2T; experiment: Immunocytochemistry with fluorescently labeled BC2-Nb; format: cell-based, human; details: mCherry-VIMBC2T (AF488) or GFP-PCNABC2T (ATTO647)
Description: (b) HeLa cells ectopically expressing mCherry-VIMBC2T or eGFP-PCNABC2T were fixed either with methanol or PFA, respectively, followed by staining with the indicated fluorescently labeled BC2-Nbs and DAPI. Scale bar 25 μm.
HeLa cells ectopically expressing untagged mCherry-VIM or eGFP-PCNA were fixed with methanol or PFA, respectively, and stained with the indicated fluorescently labeled BC2-Nbs and DAPI. Scale bar 25 μm.
For immunocytochemistry 5-10×10^3 adherent HeLa cells per well of a μClear 96 well plate (Greiner) were transfected with plasmids coding for C-terminally BC2-tagged vimentin or PCNA After 24 h, cells were washed once with PBS and fixed with 4% w/v paraformaldehyde (PFA) in PBS for 15 mm at RT or with methanol for 15 mm at −20° C. After removal of the fixative and washing twice with PBS, cells were blocked and permeabilized with 3% w/v BSA and 0.1% v/v Triton X-100 in PBS for 1 h at RT Subsequently, labeled BC2 nanobody was added with a final concentration of 10-15 μg/ml and 4′,6-diamidino-2-phenyl indole (DAPI, Sigma Aldrich) with a final concentration of 1 μg/ml for overnight incubation at 4° C. Unbound nanobody and DAPI were removed by washing 3 limes with a mixture of PBS and 6% v/v 5 M NaCl in H2O. Images of FIG. 4 b and FIG. 10 b were acquired with an Image Xpress micro XL system. Confocal images of FIG. 10 a were acquired with an ImageXpress Micro Confocal.

[5] = tested on: BC2-tagged proteins (eGFP-PCNABC2T, mCherry-VIMBC2T); experiment: Western blot detection with fluorescently labeled BC2-Nb; format: binding
Description: (b) For Western blot detection using fluorescently labeled B2-Nb (BC2-NbAF488) indicated amounts of the input fractions (as shown in (a)) were subjected to SDS-PAGE and immunoblotting. The Western blots were probed with BC2-N488 followed by detection with anti-PCNA (left panel) or anti-Vimentin (right panel) antibodies. As loading control blots were probed with an anti-GAPDH antibody (lower panel).
Denaturing polyacrylamide gel electrophoresis (SDS-PAGE) was performed according to standard procedures Protein samples were boiled in 2× SDS-sample buffer (60 mM Tris/HCl, pH 6.8; 2% (w/v) SDS; 5% (v/v) 2-mercaploethanol, 10% (v/v) glycerol, 0.02% bromophenole blue). For immunoblotting proteins were transferred on nitrocellulose membranes (Bio-Rad Laboratories).
Purified BC2 nanobody (1 mg) was labeled with the NHS-activated fluorescent dyes Alexa488 (Life technologies) or Atto647 (Atto-Tec) according to manufacturer's guidelines. After coupling, unbound dye was removed by separation on PD-10 Desalting Columns (GE Healthcare). For immunoblot analysis. 5 μg of BC2-NbAF488 was diluted in 4 ml 3% BSA diluted in TBS, 0.05% Tween20 and Western blots were incubated for 1 h at RT.

Molecule | β-catenin domain recognized [1] | Rmax [RU] ([2]; SPR, GFPBC2T on CM5 chip, 1:1 Langmuir binding model with mass transfer) | Kd ([2]; SPR, GFPBC2T on CM5 chip, 25° C., 1:1 Langmuir binding model with mass transfer) | kon (M^−1s^−1) ([2]; SPR, association rate constant) | koff (s^−1) ([2]; SPR, dissociation rate constant) | fold higher affinity compared to FLAG, HA, c-myc or EPEA systems ([2]; comparison with literature values of prior-art tag systems) | binding to epitope peptide with phosphorylated Ser23 [3] | binding to overlapping 15-mer peptides ([3]; 29 peptides covering aa 1-127) | amino acid sequence recognized (minimal epitope) ([3]; N- and C-terminally truncated peptides) | co-localization with BC2-tagged protein in fixed HeLa cells [4] | signal for endogenous β-catenin in Western blot ([5]; in the presence of BC2-tagged proteins) | specificity in Western blot detection ([5]; untagged proteins not detected)
B1 | exclusively recognizes the N-terminal domain (aa 1-119) | 170 ± 0.34 | 1.4 nM and ~1.4 nM | 4.6 ± 0.04 × 10^5 M^−1s^−1 | 6.4 ± 0.27 × 10^−4 s^−1 | 10-100 fold | completely abolishes binding | strong binding to two consecutive peptides comprising the residues 13-31 | PDRKAAVSHWQQ |  |  | 
B2 |  |  |  |  |  |  |  |  |  | clear co-localization |  | 
B3 |  |  |  |  |  |  |  |  |  | strong co-localization | no signal for β-catenin was detected | highly specific for BC2-tagged proteins
